Laboratory results published in PMC314469, “Protein Interaction Networks by Proteome Peptide Scanning” (PLoS Biology, 2004).

T1: amphyphisin SH3 (AMPH_HUMAN), P49418
T1 chain: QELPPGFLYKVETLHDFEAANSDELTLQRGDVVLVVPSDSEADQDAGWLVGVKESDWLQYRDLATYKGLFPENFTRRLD

B1: Q9UL14 222-236 (peptide)
chain: SLLSPLRPPGQRGL
B2: Q96QH2 87-101 (peptide)
chain: VTDLPKKPPPPEVT
B3: O15211 317-331 (peptide)
chain: VTIRPLRPPQRARL
B4: Q9H4N5 254-267 (peptide)
chain: VTLLIYRPERNTKL
B5: Q9NRJ4 1023-1037 (peptide)
chain: VTQLPARPPPALYT
B6: Q96JP2 954-968 (peptide)
chain: VTSKPRKPPTPPEK
B7: Q96SN6 144-157 (peptide)
chain: VVELPRRPAPPAAV
B8: P50548 338-351 (peptide)
chain: VVPQPQRPDKSPLP
B9: O94820 840-854 (peptide)
chain: VVPVPERPPEPRAM
B10: Q9Y6A1 387-400 (peptide)
chain: VVSSPPRPVRHGDM
B11: Q9Y6W6 10-23 (peptide)
chain: VVVALSRPVRPQDL
B12: P42695 1464-1478 (peptide)
chain: SLSLPDKPPPQPQQ
B13: O94991 330-344 (peptide)
chain: VYKPPLKPPKGTRQ
B14: AAH30267 1118-1132 (peptide)
chain: VYTPPPRPPPPWGS
B15: P54317 34-47 (peptide)
chain: WAGTLQRPVKLLPW
B16: Q9ULK5 218-231 (peptide)
chain: WALFFRRPKASLPR
B17: O14782 762-776 (peptide)
chain: WSQSPQRPPPSTTH
B18: Q9C0B8 71-85 (peptide)
chain: WGALPPRPPLLLLL
B19: Q13545 27-40 (peptide)
chain: WGSLPARPRRPTPT
B20: Q96DX2 170-184 (peptide)
chain: WGLLPFRPPRPLPV
B21: Q92794 305-318 (peptide)
chain: WISQISRPRKKGRK
B22: O94854 101-114 (peptide)
chain: WIPVLQRPSRTAAV
B23: Q12770 808-821 (peptide)
chain: SLTRIPRPGRQRRD
B24: Q96G29 26-39 (peptide)
chain: WLGSLRRPSLVHGY
B25: P54198 312-325 (peptide)
chain: WLTSLKRPLVVIHE
B26: Q9NP08 303-316 (peptide)
chain: WPAGPRRPHRSSAS
B27: P11229 442-455 (peptide)
chain: WRKIPKRPGSVHRT
B28: Q9H1V5 704-717 (peptide)
chain: WRRSLRRPDSRGRF
B29: Q96N50 15-28 (peptide)
chain: WRYDLRRPSFTRTW
B30: O43397 6-19 (peptide)
chain: WSEVLHRPWRNHPI
B31: Q9UL63 619-632 (peptide)
chain: WSLKLSRPSKDYLL
B32: Q9UP58 185-199 (peptide)
chain: WSRSPPRPPRERFE
B33: O15250 155-168 (peptide)
chain: WTDRPERPSKPLLT
B34: Q9Y4J6 675-688 (peptide)
chain: SNKGFRRPSEKNQH
B35: P42898 339-352 (peptide)
chain: WTEDPRRPLPWALS
B36: Q9P2P9 924-937 (peptide)
chain: WVTMPRRPPPSGGL
B37: Q9UMR2 108-121 (peptide)
chain: YAMGFNRPSKIQEN
B38: Q13006 89-102 (peptide)
chain: YSTGPPRPGRLFGS
B39: Q9UGQ3 12-26 (peptide)
chain: YDTFPEKPPPSPGD
B40: Q96QG0 338-351 (peptide)
chain: SPSAPRRPRRPRRP
B41: Q92625 879-893 (peptide)
chain: YEEPPQKPPRFSQL
B42: P30990 153-166 (peptide)
chain: YENKPRRPYILKRD

Key:
[1] = molecular target: endophilin SH3 (SH3G2_HUMAN), Q99962; test: SPOT array
[2] = molecular target: T1, amphyphisin SH3 (AMPH_HUMAN), P49418; test: SPOT array

Binder | normalised SPOT signal, Boehringer light units (BLU); mean over the file's lines of this peptide [1] | normalised SPOT signal, Boehringer light units (BLU); mean over the file's lines of this peptide [2]
B1 | 323 | 398
B2 | 58.7 | 53
B3 | 11400 | 19300
B4 | 28.7 | 362
B5 | 1400 | 39.1
B6 | 1560 | 157
B7 | 60.5 | 35.8
B8 | 279 | 64.7
B9 | 860 | 15.7
B10 | 2050 | 2920
B11 | 0 | 465
B12 | 59.6 | 57.9
B13 | 782 | 80.6
B14 | 4170 | 180
B15 | 332 | 109
B16 | 1700 | 194
B17 | 557 | 73.9
B18 | 3390 | 42.8
B19 | 7230 | 4730
B20 | 3620 | 4460
B21 | 452 | 190

Binder | normalised SPOT signal, Boehringer light units (BLU); mean over the file's lines of this peptide [1] | normalised SPOT signal, Boehringer light units (BLU); mean over the file's lines of this peptide [2]
B22 | 1300 | 2390
B23 | 294 | 817
B24 | 2680 | 879
B25 | 326 | 26.3
B26 | 4250 | 7190
B27 | 573 | 48.9
B28 | 217 | 95.6
B29 | 628 | 140
B30 | 366 | 272
B31 | 2270 | 1110
B32 | 18400 | 7550
B33 | 508 | 3180
B34 | 55.9 | 43.2
B35 | 110 | 38.4
B36 | 2400 | 31
B37 | 244 | 237
B38 | 364 | 317
B39 | 97.2 | 33
B40 | 1730 | 4890
B41 | 131 | 3280
B42 | 208 | 51.5
